{
  "source": "a protein production outcome set (Wang et al. 2014)",
  "data": [
    {"assay": "label from the status in PepcDB records", "values": [
      {"sequence": "MMIAAAIFTTCVDGNKFFYHREIKVLRHLKRFNKPALKSIKSEDGDVIDCVPITNQPAFDHHLLKNHTIQMRPSFYPVSDSTYTKREAKAVTQVWHKAGECPKNTVPIRRTKKEDLLRPKSIRSFGRKSHQSIPRTTTFDPTLGHQYALMGVRNGKFYGTEVAINLWKPYVQIPKEFSLAQTWVVSGNGSSLNTIEAGWQVYPELYDDNNPRFFVYWTRDGYRKTGCYNLLCSGFVQTSNRYTVGGSITTMSRYRGTQYDLSVLIWKDQKTGNWWLRVNEKDVIGYWPGSLFNSLGREATRVEWGGEIINSKTGGRHTTTDMGSGHFADEGFKKASYFRNLKIVDGTNTLREPQGLYFFADKHNCYNVKTGNGGTSWGAHFFYGGPGRNVKCP", "protein production": "not failed"},
      {"sequence": "MMIGENKNRPHPTIHIPQWDQINDPTATISSPFSSVNLNSVNDYPHSPSPYLDSFASLFRYLPSNELTNDSDSSSGDESSPLTDSFSSDEFRIYEFKIRRCARGRSHDWTECPFAHPGEKARRRDPRKFHYSGTACPEFRKGSCRRGDSCEFSHGVFECWLHPSRYRTQPCKDGTSCRRRICFFAHTTEQLRVLPCSLDPDLGFFSGLATSPTSILVSPSFSPPSESPPLSPSTGELIASMRKMQLNGGGCSWSSPMRSAVRLPFSSSLRPIQAATWPRIREFEIEEAPAMEFVESGKELRAEMYARLSRENSLG", "protein production": "failed"},
      {"sequence": "MMIITTMQDAIGRTPVFKFTNKDYPIPLNSAIYAKLEHLNPGGSVKDRLGQYLIGEGFKTGKITSKTTIIEPTAGNTGIALALVAIKHHLKTIFVVPEKFSTEKQQIMRALGALVINTPTSEGISGAIKKSKELAESIPDSYLPLQFENPDNPAAYYHTLAPEIVQELGTNLTSFVAGIGSGGTFAGTARYLKERIPAIRLIGVEPEGSILNGGEPGPHEIEGIGVEFIPPFFENLDIDGFETISDEEGFSYTRKLAKKNGLLVGSSSGAAFVAALKEAQRLPEGSQVLTIFPDVADRYLSKGIYL", "protein production": "failed"},
      {"sequence": "MMKLLHLFMDEITMDPLHAVYLTVGLFVITFFNPGANLFVVVQTSLASGRRAGVLTGLGVALGDAFYSGLGLFGLATLITQCGEIFSLIRIVGGAYLLWFAWCSSMRRHSTPQMSTLQQPISAPWYVFFRRGLITDLSNPQTVLFFISIFSVTLHAETPTWARLMAWAGIVLASIIWRVFLSQAFSLPAVRRAYGRMQRVASWVIGAIIGVFALRLIYEGVTQR", "protein production": "failed"},
      {"sequence": "MMKNKKVEANLSMVVSKTFSGLNMNALKYLLPVWVSPLSGVTLRCVFAAIAFWIIGMFVKPEISTRKEKIFLFLLGALGIYGFMFLYLMGLSKTTPVSSSIFTSLQPIWVFVIAVVFFKEKISAMKIAGISLGLGGAILCILAQKSDDLASDALTGNMLCLLSSIAYAVYLVASNRILKSVGMFTVLKYTFAGAAFSSIVVSAVTGFHAPVFSGPLHWFPLSVLLFVLIFPTVVSYLLVPIGLKYLKTTVVAIYGYLILIVATIVSLLVGQDRFSWSQTIAIGMICVSVYLVEVAETKEKPVSNSDKPSSLPPHGS", "protein production": "failed"},
      {"sequence": "MMLAVEDVLSELAGEERNERGLPPGFRFHPTDEELITFYLASKIFHGGLSGIHISEVDLNRCEPWELPEMAKMGEREWYFYSLRDRKYPTGLRTNRATTAGYWKATGKDKEVFSGGGGQLVGMKKTLVFYKGRAPRGLKTKWVMHEYRLENDHSHRHTCKEEWVICRVFNKTGDRKNVGLIHNQISYLHNHSLSTTHHHHHEALPLLIEPSNKTLTNFPSLLYDDPHQNYNNNNFLHGSSGHNIDELKALINPVVSQLNGIIFPSGNNNNDEDDFDFNLGVKTEQSSNGNEIDVRDYLENPLFQEASYGLLGFSSSPGPLHMLLDSPCPLGFQL", "protein production": "failed"},
      {"sequence": "MMMEEKLVINELELGKELANRLMNNLKHTSSVDSNKTLISDILRIYQNAIFMLSFNQDKNILKRSLEIDGKDSKNVFKKRKVSEKNTEKVKVFVATEQENGSIDDGHCWRKYGQKEIHGSKNPRAYYRCTHRFTQDCLAVKQVQKSDTDPSLFEVKYLGNHTCNNITSPKTTTNFSVSLTNTNIFEGNRVHVTEQSEDMKPTKSEEVMISLEDLENKKNIFRTFSFSNHEIENGVWKSNLFLGNFVEDLSPATSGSAITSEVLSAPAAVENSETADSYFSSLDNIIDFGQDWLWS", "protein production": "failed"},
      {"sequence": "MMNLALQQRISELGPWFQNMRFGEIETAPDHFLGDYPAFKWEGFKHVVPKDLEGCSVLDIGCNAGFYALEMKRRNAGRVLGIDSDPRYLEQARFAADHFGLDVEFRQMSVYEVSKLGERFDLVLFMGVLYHLRHPLLALDLLYEHVVADLMLFQCLQRGEERIAKLEEDYDFSEWKIFDRSDFPKLFFVEERFAADPTNWFIPNKAAVEAMLRSSGFVIEANPEREVYLCRRGRRPYKVEPPPG", "protein production": "failed"},
      {"sequence": "MMNNVKYLSFALILAFSACKSGSASSQEPSEKQDTVKIFNLPQIPVVLNTVEQRTDYMVKHYWDRFDFSDTTYINQAEVPEQAWVDYCDLLEHVPLPVAQTAMKETFNRAEKNRKMLHFFEELADKYLYDPNSPMRNEEFYIPVLEALIASPALDETAKIRPQARLELAQKNRLGTKALNFTYTLDSGVKGTLYQFPAEYTLLFINNPGCHACAEMIEGLKASPVINGFTAAKKLKVLSIYPDEELDEWKKHRNDFAKEWTNGYDKELVIKNKNLYDLRAIPTLYLLDKNKTVLLKDATLQKVEQYLAERG", "protein production": "failed"},
      {"sequence": "MMNSRQRYKAFISYSHHDRKAAEWLHRSLESYRPPAGLRAGLGEASGNALKPIFRDRDELSAAADLSEAIRDALDRSDTLIILCSSHAATSRWVDKEVAHFLTLRGADHMISVIAPGAPEGLPLMELLPPALRAALPEGVEPLAVDLRQDADGRRLAKLKIAARLLGVSLDRLVQRDARRRLRLMTAVSGVALAITVGMGAMTVVTLKSRQIAREQRDETEALVAYMLGDLREQLEPVGRLDLLDGVSAKVLAYYAKAQSDQLDDKALAQRAKAQTLLGTIREQRGDLEGAQDAFAQAAATTHALVERSPNDGDRVFDEAQNVFWLAYMGWRRGEIAQAERGFKRYAELAQRLVVIDPNRADWRIEVAYAKNNLGTLLFEEGRAGEALASFRAAFSIFEAERLRAPTDKQRLMDSANARAWVADCLLLMAKPREAFTERKAAAELLAKGEAAFPADQRLAAKSVATQLALARLELDLGRVAEARSRSKAAMNRLRELAALDPTNTRWREYVLIGELDFIDFAIWSGQPVQARSLHAAALANLARTRKGQEGGSWRPDLDGRLARQAVVLALSVGDVATAKRAAKSLVEALETSKVDRETAFGRTDLLGLAQLVDGKPSAAIKALSPRRNALPPASLDVLARAYAAVGERETAARIVRDLKQEGYAHPGFVAFWRESPAGGPPQSGVLK", "protein production": "failed"},
      {"sequence": "MMNTTTLDRYFDLFDASRTDEKAFDDLISLFSDEITFVLNGQEQHGIDAWKQFVRMVFTANQDIKHMYAGWVPSETGDTMETRWAVCGKSADGSVFTQDGTDIARLNADGKIVYLANVPDDTAMFNQYND", "protein production": "not failed"},
      {"sequence": "MMNYKQLLIDNFAFKTSYVAQFVPGMSIKETKDYIAVDCGLPADTFNIITLLNNNLTEGVEKLYKEVEYYNQKKFPMSVWLWDEEQERDIKSELNKIGLKEAEQNIAMVADLKTISPTINMPVSFTIQQASSPGLIKKFGETLANLFGTSEEAIHVQAFYNQISNLDLWNSENMKLFLGFYEGEIVTVGSLICSKDSIGIYDIATKEEMRGRGFGSTMFNFLLQEAQKFKNTYCVLQASTDGINIYKKSGFQAIGKMTVLENRHVIE", "protein production": "failed"},
      {"sequence": "MMPLSTPDFASIRDTLLRDLQNLRADADIAPDSDYFVRASSVASAVEGLYQHQSWIARQIFPDTADSEYLEQHARLRGIVRKPAAAASGTLRISGNAGAVVSGSLQLRIGEQLYATPAANPDGSPYAARLDANGQAELPIFASQAGAAGNQPESLPVELMQAPSGVSAKALLLSMRNGVDVEDDAALLDRLLELIRRPPAGGNRHDYRRWAMEVKGVSAAYVYPLRRGLGTVDVVITANGDLPSQEILNNVQAHIEDLRPVTAKSCLVLAPTPRPVDIDVALNLGGANLDAFTPLLQQTLQAYFAGLAPGERLVKSRIEALISDLPGVQDRQLNSPAGNVDPVSDPTKVEWLRLGKLTVGLLKLEHHHHHH", "protein production": "not failed"},
      {"sequence": "MMPNRNTNMLLAYKRLPNWTANSIPETLLNPHNTKVGTWEQLTVLSGKLDVYFFDKDDHVLEKLTFDKDSQMPFIQPQVCYKIEPASNDLECHLTLYCQKGDYFNKKYGMTKTHSEVLFSAPYLKENSKILDLGSGQGRNSLYLTMLGHDVTSVDTNEQSLIHLKNIANEENLPSKINWYDINTANLQETYDFILSTVVFMFLNRPVVPDIIKDMQKHTAIGGYNLIVCAMDTKSYPCPIPFPFTFKKGELKDYYKEWYLIKYNEDLGQLHKTDANGNRLQMQFATLLAKKVK", "protein production": "failed"},
      {"sequence": "MMPSSSTPNAFQYAWRNPWVRLVVFLGLFYLLYLFIGQITTVLVDFAVAFLIAYLANPLLGWLERGRVRRGLGVFFVLLLFLGLLALAGALVVTVGGQFVQLFQNLPAQIDNLNRILDGAVQWLSGRGIPGLADAQTRMTEALRDWIANIGNNIVPILQNALSSTGTLFNRLISIGGVIGQVLLILLLSVYLMLDYARVNASLLRAFPRPWQPKVLEFSDLIGTAVGGYVRGQLLIAAFIGIFVWLGLTIVGIPSAAAIGFLAGAFNIVPYLGPIIGATPALLLALTLPNAGFKMILVVVVFVLANQIEGNFLSPYILSKTTDLHPVTVLLAILVGVALMGFAGALLAVPLVALGKLMLEKYYYPSRVYSQGP", "protein production": "failed"},
      {"sequence": "MMPYITDIAALEHVGVAAAWTEKVPAFRVLREKRMLDFRAPITVITGENGVGKSTLLEAIAINAGFDTAGGEHTGKFKPSDNPLQTVAKAHKGKEPMRGYFLRAETHFNVASGYRDEAPGWVNLHHMSHGESVMHIVQNAFVGKGLYLMDEPEAGLSFIRQMAILAELNFLAESGAQIIIVTHSPVLMAIPGAEIWEFSASGELHRGFDFEVTTAFRALRDFFEDPEEIAEYMMDVMMDNKGESLEHHHHHH", "protein production": "failed"},
      {"sequence": "MMQDCEKLLDEPGRLAAVRRYAVLDTAPEEPFDKLTRLVCNVLEVPYAAVTLIDADRQWFKSLVGLSGSEGPRHESFCTHTIKTRDPMIVPDATLDPRFRDSPLVTGAAGIRSYLGVPLETPDGYNLGALCAVDTAPRTFSTSQIEIMKSFASLVLDELELRQIALSDALTGAMTRRGWLAAVEKEMARGARQGTQAAIVLFDVDHFKAINDTHGHAVGDAVLQALTRRCLLHLGPADALGRIGGEEFAVLVPDAGLPEAMELAERLRRSFSDAPIEVAGQALRVTASFGVQGLDGDTGNAGSWLAAADRRLYEAKAAGRNRCHGG", "protein production": "failed"},
      {"sequence": "MMQHCAPTPRLARFLFVEYRMMRQYELVERVQKYKPDANEALLNKAYVYAMQKHGQQKRANGDPYISHPLEVAAILTEMHLDESTIAVALLHDTIEDTTATRAEIDELFGEDIGRLVEGLTKLKKLDLVTRKAKQAENLRKLLLAISDDVRVLLVKLADRLHNMRTMEYMPADKRSRISEETMEIYAPLAGRMGMQDMRDELEDLSFRYLNPEAYETVTNRLLELETRNEGLIKKIEDELRELLVANGLLGTHVKGRQKKPYSVFRKMQSKSLSFEQLSDVYGFRILVDDIPGCYRALGIVHTRWRVVPGRFKDYISTPKQNDYRSIHTTIVGPSRQRIELQIRTKRMHEIAEFGIAAHALYKDGENGEGDLLSKESNAYSWLRHTIESLAEGDSPEEFLEHTKLELFQDQVFCFTPKGKLIALPRGATPIDFAYAVHTNIGDTTVGAKINGRIMPLVTRLNNGDEVEIIRSGVQVPPAAWEEVVVTGKARSAIRRATRMAIRKQYSGLGYRILERTFERAGKAFSREALKPVLHRLAQKDVEDAIAAVGRGEVSSLDVLRAVFPDYQDERVTVKMTGDDGWFNMRSASGMVFKIPGKSRSVLEDDGAAEMLDGPDPLPIRGLSGNVDVHFSAAGAVPGDRIVGIMEKGKGITIYPIQAPALQRFDDEPERWIDVRWDLDEANKSRFMARVMINALNEPGTLASVAQSIATLDVNIRGLNMVRIGTDFSELALDVEVWDLRQLNQLLSQLKDLDCVSTVARAFD", "protein production": "failed"},
      {"sequence": "MMQIDSIEIGGKVYQFFKSDLGNAPLLFIKGSKGYAMCGYLNMETSNKVGDIAVRVMGVKTLDDMLSAKVVEASQEAQKVGINPGDVLRNVIDKL", "protein production": "not failed"}
    ]}
  ]
}
